Residue numbers refer to the chain shown, from its start. One block for each binder: values may come before it.
Assays:
[1] = target: T1, beta amyloid peptide (Aβ) (human, UniProt P05067 672-713, limits assumed); test: BIAcore
T1 construct: also called A-beta; β-amyloid peptide

[2] = target: T1, beta amyloid peptide (Aβ); test: average of ELISA and BIAcore results
[3] = target: T1, beta amyloid peptide (Aβ); test: ELISA competitive binding assay with biotinylated 3D6
… analog, Residue 8 = C = target: T2, … analog, Residue 8 = C; test: rNET
T2 peptide: DAEFRHDCGY

… analog, Residue 8 = H = target: T3, … analog, Residue 8 = H; test: rNET
T3 peptide: DAEFRHDHGY

… analog, Residue 8 = K = target: T4, … analog, Residue 8 = K; test: rNET
T4 peptide: DAEFRHDKGY

… analog, Residue 8 = N = target: T5, … analog, Residue 8 = N; test: rNET
T5 peptide: DAEFRHDNGY

… analog, Residue 8 = P = target: T6, … analog, Residue 8 = P; test: rNET
T6 peptide: DAEFRHDPGY

… analog, Residue 8 = R = target: T7, … analog, Residue 8 = R; test: rNET
T7 peptide: DAEFRHDRGY

… analog, Residue 1 = A = target: T8, … analog, Residue 1 = A; test: rNET
T8 peptide: AAEFRHDSGY

… analog, Residue 1 = C = target: T9, … analog, Residue 1 = C; test: rNET
T9 peptide: CAEFRHDSGY

… analog, Residue 1 = E = target: T10, … analog, Residue 1 = E; test: rNET
T10 peptide: EAEFRHDSGY

… analog, Residue 1 = F = target: T11, … analog, Residue 1 = F; test: rNET
T11 peptide: FAEFRHDSGY

… analog, Residue 1 = G = target: T12, … analog, Residue 1 = G; test: rNET
T12 peptide: GAEFRHDSGY

… analog, Residue 1 = H = target: T13, … analog, Residue 1 = H; test: rNET
T13 peptide: HAEFRHDSGY

… analog, Residue 1 = I = target: T14, … analog, Residue 1 = I; test: rNET
T14 peptide: IAEFRHDSGY

… analog, Residue 1 = K = target: T15, … analog, Residue 1 = K; test: rNET
T15 peptide: KAEFRHDSGY

… analog, Residue 1 = L = target: T16, … analog, Residue 1 = L; test: rNET
T16 peptide: LAEFRHDSGY

… analog, Residue 1 = M = target: T17, … analog, Residue 1 = M; test: rNET
T17 peptide: MAEFRHDSGY

… analog, Residue 1 = N = target: T18, … analog, Residue 1 = N; test: rNET
T18 peptide: NAEFRHDSGY

… analog, Residue 1 = P = target: T19, … analog, Residue 1 = P; test: rNET
T19 peptide: PAEFRHDSGY

… analog, Residue 1 = R = target: T20, … analog, Residue 1 = R; test: rNET
T20 peptide: RAEFRHDSGY

… analog, Residue 1 = S = target: T21, … analog, Residue 1 = S; test: rNET
T21 peptide: SAEFRHDSGY

… analog, Residue 1 = W = target: T22, … analog, Residue 1 = W; test: rNET
T22 peptide: WAEFRHDSGY

… analog, Residue 1 = Y = target: T23, … analog, Residue 1 = Y; test: rNET
T23 peptide: YAEFRHDSGY

… analog, Residue 2 = C = target: T24, … analog, Residue 2 = C; test: rNET
T24 peptide: DCEFRHDSGY

… analog, Residue 2 = D = target: T25, … analog, Residue 2 = D; test: rNET
T25 peptide: DDEFRHDSGY

… analog, Residue 2 = F = target: T26, … analog, Residue 2 = F; test: rNET
T26 peptide: DFEFRHDSGY

… analog, Residue 2 = G = target: T27, … analog, Residue 2 = G; test: rNET
T27 peptide: DGEFRHDSGY

… analog, Residue 2 = H = target: T28, … analog, Residue 2 = H; test: rNET
T28 peptide: DHEFRHDSGY

… analog, Residue 2 = I = target: T29, … analog, Residue 2 = I; test: rNET
T29 peptide: DIEFRHDSGY

… analog, Residue 2 = K = target: T30, … analog, Residue 2 = K; test: rNET
T30 peptide: DKEFRHDSGY

… analog, Residue 2 = N = target: T31, … analog, Residue 2 = N; test: rNET
T31 peptide: DNEFRHDSGY

… analog, Residue 2 = Q = target: T32, … analog, Residue 2 = Q; test: rNET
T32 peptide: DQEFRHDSGY

… analog, Residue 2 = R = target: T33, … analog, Residue 2 = R; test: rNET
T33 peptide: DREFRHDSGY

… analog, Residue 2 = T = target: T34, … analog, Residue 2 = T; test: rNET
T34 peptide: DTEFRHDSGY

… analog, Residue 3 = C = target: T35, … analog, Residue 3 = C; test: rNET
T35 peptide: DACFRHDSGY

… analog, Residue 3 = D = target: T36, … analog, Residue 3 = D; test: rNET
T36 peptide: DADFRHDSGY

… analog, Residue 3 = H = target: T37, … analog, Residue 3 = H; test: rNET
T37 peptide: DAHFRHDSGY

… analog, Residue 3 = I = target: T38, … analog, Residue 3 = I; test: rNET
T38 peptide: DAIFRHDSGY

… analog, Residue 3 = K = target: T39, … analog, Residue 3 = K; test: rNET
T39 peptide: DAKFRHDSGY

… analog, Residue 3 = L = target: T40, … analog, Residue 3 = L; test: rNET
T40 peptide: DALFRHDSGY

… analog, Residue 3 = M = target: T41, … analog, Residue 3 = M; test: rNET
T41 peptide: DAMFRHDSGY

… analog, Residue 3 = N = target: T42, … analog, Residue 3 = N; test: rNET
T42 peptide: DANFRHDSGY

… analog, Residue 3 = P = target: T43, … analog, Residue 3 = P; test: rNET
T43 peptide: DAPFRHDSGY

… analog, Residue 3 = Q = target: T44, … analog, Residue 3 = Q; test: rNET
T44 peptide: DAQFRHDSGY

… analog, Residue 3 = W = target: T45, … analog, Residue 3 = W; test: rNET
T45 peptide: DAWFRHDSGY

… analog, Residue 3 = Y = target: T46, … analog, Residue 3 = Y; test: rNET
T46 peptide: DAYFRHDSGY
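Wherever OD is given: antibody binding measured against single-substituted peptide analogs, each epitope position replaced by every one of 19 non-native amino acids, compared with binding to the native Aβ peptide.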

Kd [1]: 2.06 nM | koff [1]: 0.000382 s⁻¹ | kon [1]: 185000 M⁻¹ s⁻¹ | fold loss of binding affinity against 3D6 [2]: ~3 fold | fold less binding affinity than 3D6 [3]: ~6 fold
B1: humanized 3D6 version 1 (antibody, V domains shown)
VH: EVQLLESGGGLVQPGGSLRLSCAASGFTFSNYGMSWVRQAPGKGLEWVASIRSGGGRTYYSDNVKGRFTISRDNAKNSLYLQMNSLRAEDTALYYCVRYDHYSGSSDYWGQGTLVTVSS
VL: YVVMTQSPLSLPVTPGEPASISCKSSQSLLDSDGKTYLNWLLQKPGQSPQRLIYLVSKLDSGVPDRFSGSGSGTDFTLKISRVEAEDVGVYYCWQGTHFPRTFGQGTKVEIK
notes: Human constant regions (light chain vector pCMV-cK); also called humanized 3D6v1; h3D6v1

OD (… analog, Residue 8 = C): 0.7 OD | OD (… analog, Residue 8 = H): 0.683 OD | OD (… analog, Residue 8 = K): 0.698 OD | OD (… analog, Residue 8 = N): 0.7 OD | OD (… analog, Residue 8 = P): 0.694 OD | OD (… analog, Residue 8 = R): 0.699 OD | OD (… analog, Residue 1 = A): 0.643 OD | OD (… analog, Residue 1 = C): 0.628 OD | OD (… analog, Residue 1 = E): 0.7 OD | OD (… analog, Residue 1 = F): 0.062 OD | OD (… analog, Residue 1 = G): 0.738 OD | OD (… analog, Residue 1 = H): 0.117 OD | OD (… analog, Residue 1 = I): 0.118 OD | OD (… analog, Residue 1 = K): 0.057 OD | OD (… analog, Residue 1 = L): 0.148 OD | OD (… analog, Residue 1 = M): 0.072 OD | OD (… analog, Residue 1 = N): 0.757 OD | OD (… analog, Residue 1 = P): 0.144 OD | OD (… analog, Residue 1 = R): 0.155 OD | OD (… analog, Residue 1 = S): 0.762 OD | OD (… analog, Residue 1 = W): 0.07 OD | OD (… analog, Residue 1 = Y): 0.498 OD | OD (… analog, Residue 2 = C): 0.694 OD | OD (… analog, Residue 2 = D): 0.222 OD | OD (… analog, Residue 2 = F): 0.717 OD | OD (… analog, Residue 2 = G): 0.72 OD | OD (… analog, Residue 2 = H): 0.741 OD | OD (… analog, Residue 2 = I): 0.722 OD | OD (… analog, Residue 2 = K): 0.722 OD | OD (… analog, Residue 2 = N): 0.735 OD | OD (… analog, Residue 2 = Q): 0.756 OD | OD (… analog, Residue 2 = R): 0.719 OD | OD (… analog, Residue 2 = T): 0.712 OD | OD (… analog, Residue 3 = C): 0.41 OD | OD (… analog, Residue 3 = D): 0.027 OD | OD (… analog, Residue 3 = H): 0.02 OD | OD (… analog, Residue 3 = I): 0.024 OD | OD (… analog, Residue 3 = K): 0.09 OD | OD (… analog, Residue 3 = L): 0.026 OD | OD (… analog, Residue 3 = M): 0.027 OD | OD (… analog, Residue 3 = N): 0.032 OD | OD (… analog, Residue 3 = P): 0.02 OD | OD (… analog, Residue 3 = Q): 0.406 OD | OD (… analog, Residue 3 = W): 0.304 OD | OD (… analog, Residue 3 = Y): 0.02 OD | Kd [1]: 2.24 nM
B2: humanized 3D6 version 2 (antibody, V domains shown)
VH: B1 VH with A75S, S78T, L93V
VL: B1 VL with Y1D
notes: also called humanized 3D6v2; h3D6v2
